Laboratory results published in patent US20230272086A1 (CHIA TAI TIANQING PHARMACEUTICAL GROUP, published 2023).
Residue numbers refer to the chain shown, from its start.

T1: human ST2 (hST2, Interleukin-1 receptor-like 1 isoform A) on cells (human, UniProt Q01638 19-556)
T1 sequence: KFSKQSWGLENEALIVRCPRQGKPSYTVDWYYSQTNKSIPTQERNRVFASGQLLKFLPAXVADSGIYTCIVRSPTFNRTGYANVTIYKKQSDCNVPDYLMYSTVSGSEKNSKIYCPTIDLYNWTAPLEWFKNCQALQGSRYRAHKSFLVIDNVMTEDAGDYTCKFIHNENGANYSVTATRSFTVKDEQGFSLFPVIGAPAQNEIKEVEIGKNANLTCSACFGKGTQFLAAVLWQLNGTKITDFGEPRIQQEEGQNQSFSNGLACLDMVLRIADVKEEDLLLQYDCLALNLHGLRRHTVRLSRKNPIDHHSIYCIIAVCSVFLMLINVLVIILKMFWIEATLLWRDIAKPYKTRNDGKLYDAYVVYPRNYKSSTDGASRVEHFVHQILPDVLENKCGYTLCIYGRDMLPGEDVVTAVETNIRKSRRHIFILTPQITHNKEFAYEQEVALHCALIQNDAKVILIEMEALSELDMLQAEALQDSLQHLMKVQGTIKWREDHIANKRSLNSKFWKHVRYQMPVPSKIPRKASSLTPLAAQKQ

T2: IL1R1/CD121a (Sino biological, 10126-H08H) (UniProt P14778 18-332)
T2 construct: Bought protein
T2 sequence (looked up): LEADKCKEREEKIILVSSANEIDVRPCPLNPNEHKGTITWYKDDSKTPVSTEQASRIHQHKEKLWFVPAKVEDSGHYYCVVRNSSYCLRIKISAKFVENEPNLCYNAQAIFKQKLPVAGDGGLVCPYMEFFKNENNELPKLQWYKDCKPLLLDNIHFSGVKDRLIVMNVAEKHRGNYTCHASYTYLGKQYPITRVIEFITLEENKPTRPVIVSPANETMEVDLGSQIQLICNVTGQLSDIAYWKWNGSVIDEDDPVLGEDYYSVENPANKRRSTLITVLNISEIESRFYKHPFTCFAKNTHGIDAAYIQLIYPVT

T3: IL1R3/IL1RAP (Sino biological, 10121-H08H) (UniProt Q9NPH3 21-359)
T3 construct: Bought protein
T3 sequence (looked up): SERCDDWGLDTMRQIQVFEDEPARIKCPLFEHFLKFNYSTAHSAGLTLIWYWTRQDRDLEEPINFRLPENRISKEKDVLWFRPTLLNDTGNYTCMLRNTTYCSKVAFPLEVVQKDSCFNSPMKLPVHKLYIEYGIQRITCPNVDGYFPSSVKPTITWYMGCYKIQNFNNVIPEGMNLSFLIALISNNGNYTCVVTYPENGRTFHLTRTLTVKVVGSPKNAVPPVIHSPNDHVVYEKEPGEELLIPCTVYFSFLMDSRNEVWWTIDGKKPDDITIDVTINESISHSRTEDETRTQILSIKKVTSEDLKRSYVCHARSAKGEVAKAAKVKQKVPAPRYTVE

T4: recombinant protein containing hST2 extracellular domain with mouse antibody heavy chain Fc tag (hST2-ECD-mFc) (human)
T4 construct: Used for SPR and for ELISA of chimeric and humanized antibodies; also called human ST2 antigen
T4 chain: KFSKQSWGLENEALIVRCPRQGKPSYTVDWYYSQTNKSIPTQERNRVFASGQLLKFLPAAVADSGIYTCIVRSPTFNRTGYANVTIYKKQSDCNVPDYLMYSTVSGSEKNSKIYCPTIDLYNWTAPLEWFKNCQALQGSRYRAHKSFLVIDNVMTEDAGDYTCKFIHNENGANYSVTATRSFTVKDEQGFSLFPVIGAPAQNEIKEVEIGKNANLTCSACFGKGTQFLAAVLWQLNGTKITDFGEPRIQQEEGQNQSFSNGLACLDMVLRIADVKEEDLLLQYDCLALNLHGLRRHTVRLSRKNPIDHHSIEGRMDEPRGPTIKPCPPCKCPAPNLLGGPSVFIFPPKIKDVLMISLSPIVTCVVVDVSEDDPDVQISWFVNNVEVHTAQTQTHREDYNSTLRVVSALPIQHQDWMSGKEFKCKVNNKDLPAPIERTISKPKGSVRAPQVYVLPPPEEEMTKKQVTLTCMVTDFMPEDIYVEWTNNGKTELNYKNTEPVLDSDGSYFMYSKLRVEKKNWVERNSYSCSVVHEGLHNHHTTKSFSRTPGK

B1: RG6149 (antibody Ab2 in CN104334582, prepared in-house) (antibody, human IgG2, kappa, V domains shown)
VH: EVQLVQSGAEVKKPGESLKISCKGSGYSFTNYWIGWVRQMPGKGLEWMGIIYPGNSDTRFSPSFQGQVTISADKSITTAYLQWSSLKASDTAMYYCARHGTSSDYYGLDVWGQGTTVTVSS
VL: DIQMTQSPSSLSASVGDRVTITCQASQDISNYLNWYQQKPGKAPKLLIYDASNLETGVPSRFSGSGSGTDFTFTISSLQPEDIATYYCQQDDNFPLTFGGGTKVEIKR
notes: Control anti-ST2 antibody
B2: GSK3772847 (antibody STLM208 in CN104411333, prepared in-house) (antibody, human IgG2, kappa, V domains shown)
VH: EVQLLESGGGLVQPGGSLRLSCAASGFTFSIYDMIWVRQAPGKGLEWVSSIRGEGGGTYYADSVKGRFTISRDNSKNTLYLQMNSLRAEDTAVYYCARDPWSTEGSFFVLDYWGQGTLVTVSS
VL: EIVLTQSPATLSLSPGERATLSCRASQSVDDDLAWYQQKPGQAPRLLIYDASNRATGIPARFSGSGSGTDFTLTISSLEPEDFAVYYCQQYITAPLTFGQGTKVEIKR
notes: Control anti-ST2 antibody
B3: Chimeric 31C8 (antibody, human IgG2, kappa, V domains shown)
VH: QVQLQQSGPELVRPGASVTLSCKASGYIFIDSEMHWVKQTPVHGLEWIGAIDPETGDTVYNQKFKGKATLTADKSSSTASMELSSLTSEDSAVYYCTGSTTDYYFAYWGQGTTLTVSS
VL: DIVMTQAAFSNPVTLGTSASISCRSSKSLLHSNGIIYLYWYLQKPGQSPQLLIYQMSNLASGVPDRFSSSGSGTDFTLRISRVEAEDVGVYYCAQNLELPFTFGSGTKLEIKR
notes: also called xi31C8
B4: Humanized 31C8-1.1 (antibody, human IgG2, kappa, V domains shown)
VH: EVQLVQSGAEVKKPGATVKISCKASGYIFIDSEMHWVQQAPGKGLEWMGAIDPETGDTVYAEKFQGRVTITADKSSSTAYMELSSLRSEDTAVYYCTGSTTDYYFAYWGQGTLVTVSS
VL: DIQMTQSPSSLSASVGDRVTITCRSSKSLLHSNGIIYLYWYQQKPGKAPKLLIYQLSNLASGVPSRFSSSGSGTDFTLTISSLQPEDFATYYCAQNLELPFTFGQGTKVEIKR
notes: also called hz31C8-1.1; hz31C81-1.1
B5: Humanized 31C8-1.2 (antibody, human IgG2, kappa, V domains shown)
VH: B4 VH with E1Q, E10K, E62K, Q65K
VL: B4 VL
notes: also called hz31C8-1.2; hz31C81-1.2

molecular target: T1, human ST2 (hST2, Interleukin-1 …); test: cell-based or functional assay

| IC50, blocking of the IL33/ST2-induced IL5 secretion on CD4+ T cells (hIL33 plus IL2 co-stimulation) [nM] | Binder |
| --- | --- |
| 1.82 | B1 |
| 0.794 | B2 |
| 0.44 | B3 |
| 0.462 | B4 |
| 0.366 | B5 |

molecular target: T2, IL1R1/CD121a (Sino biological, …); test: ELISA, plate coated with 2 µg/mL receptor
Procedure: (§1) The anti-ST2 antibodies were diluted with PBS buffer to a concentration of 1.5 mg/mL. After being treated at 72° C. for 5 min, the samples were assayed by ELISA for their binding activity for an antigen The ELISA procedure is as follows: A 96-well plate was coated with 2 µg/mL hST2-ECD-mFc as the antigen at 100 µL/well and incubated at 4° C. overnight. After the antigen not adsorbed was well washed off, the non-specific binding sites were blocked with a blocking buffer (PBST containing 1% bovine serum albumin). After the plate was washed three times with a washing buffer (PBST, PBS containing 0.05% (v/v) Tween 20), the anti-ST2 antibodies (serially diluted 3-fold from an initial concentration of 1.5 µg/mL to 8 concentrations) were added at 100 µL/well, and the plate was incubated at 37° C. for 1 h. […] After the plate was incubated at room temperature for 5 min, a stop solution (2 N H₂SO₄) was added to stop the reactions. The signals were read at 450 nm using a plate reader (PE, Envision). The data were analyzed using GraphPad Prism5, and the EC₅₀ values were calculated.
(§2) ST2 belongs to the IL1R receptor family. The cross-reactivity of the anti-ST2 antibodies with the IL1R family receptors was determined by ELISA. The IL1R family receptors include IL1R⅟CD121a (Sino biological, 10126-H08H), IL1R2/CD121b (Sino biological, 10111-H08H), IL1R3/IL1RAP (Sino biological, 10121-H08H), IL1R7/IL-18RAcP (Sino biological, 10176-H08H), IL1R8/IL1RAPL1 (Sino biological, 10177-H08H), and IL1R9/IL1RAPL2 (Sino biological, 10156-H08H). ELISA assays were performed using the proteins described above as antigens (2 µg/mL). See Example 13 for the specific ELISA procedure. No binding means that the antibody remains unbound to the antigen when at the highest concentration.

| binding result | Binder |
| --- | --- |
| no binding | B1 |
| no binding | B2 |
| no binding | B3 |
| no binding | B4 |
| no binding | B5 |

molecular target: T3, IL1R3/IL1RAP (Sino biological, …); test: ELISA, plate coated with 2 µg/mL receptor
Procedure: as §1, §2

| binding result | Binder |
| --- | --- |
| no binding | B1 |
| no binding | B2 |
| no binding | B3 |
| no binding | B4 |
| no binding | B5 |

Molecular target: T4, recombinant protein containing hST2 …
Test: ELISA, plate coated with hST2-ECD-mFc, antibody heated at 72 °C for 5 min
Procedure: as §1

| EC50 [nM] | Binder |
| --- | --- |
| 0.188 | B2 |
| 0.0863 | B3 |
| 0.0968 | B4 |
| 0.11 | B5 |
